Laboratory results taken from the supplement of paper PMC10201428.
± gives the standard deviation of the averaged measurements.

How the values were obtained:
[1] = test system: VchCAST RNA-guided transposition machinery (E. coli BL21(DE3) host, lacZ target); experiment: relative integration efficiency (T-LR orientation) vs wild-type transposon end (log2 (normalized fold change)); transposon end mutated: right end (5 bp flank + 75 bp right end); higher = more efficient transposition
Procedure, shortened: (§1)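 Barcode abundances in input plasmids and in genomic integration junctions were obtained by PCR amplification and Illumina sequencing. These came from E. coli BL21(DE3) co-transformed with a T7-driven effector plasmid and a pUC57 donor carrying 1549 left-end or 1849 right-end transposon variants, then plated with 0.1 mM IPTG at 37°C for 18 h. Relative integration efficiency is the output/input fold change, normalised to reference barcodes and log-transformed.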

[2] = test system: VchCAST RNA-guided transposition machinery (E. coli BL21(DE3) host, lacZ target); experiment: relative integration efficiency (T-RL orientation) vs wild-type transposon end (log2 (normalized fold change)); transposon end mutated: right end (5 bp flank + 75 bp right end); higher = more efficient transposition
Procedure, shortened: as §1

Sequence	relative integration efficiency (log2) [1]	relative integration efficiency (log2) [2]
ACATTTGTTGATACAACCCTAAAATGATAATTACACCCATAAATGGATAATTATCACACCCAATTTAACTATAACGCTCTGATCATAGTCAGACCAACATTGCTACGACCCGTATTCGCACCGACAC	-0.403 ± 0.044	-3.06 ± 0.29
ACATTTGTTGATACAACCATAAAATGATAATTAATAATTATTTATAATCACCCATAAATTGATAATTATCAACAAACGCCCGGTCGCGGTACTCTGATCATAGTCAGACCAACATTGCTACGACCCG	1.05 ± 0.26	-3.08 ± 0.15
ACATTTGTTGATACAACCATAAAATGATAATGCACAAACGCCCGGTCGCCGGCGACACAAACGCCCGGTCGCGGTAAGAGGATCATAGTCAGACCAACATTGCTACGACCCGTATTCGCACCGACAC	1.04 ± 0.18	-2.15 ± 0.043
ACATTTGTTGATACAACCATAAAATGATAATTTGTGCCATAAATTGATAATTATCACACCCATAAATTGATATTGCCTCTGATCATAGTCAGACCAACATTGCTACGACCCGTATTCGCACCGACAC	-1.18 ± 0.14	-1.7 ± 0.25
ACATTTGTTGATACAACCATATTATGATAATTACACCCATAAATTGATAATTATCACACCCATAAATTGATATTGCCTCTGATCATAGTCAGACCAACATTGCTACGACCCGTATTCGCACCGACAC	-0.476 ± 0.63	-0.2975 ± 0.0027
ACATTTGTTGATACAACCATAAAATGATAAGGCCACCCATAAATTGATAAGGCTCACACCCATAAATTGATATGTACTCTGATCATAGTCAGACCAACATTGCTACGACCCGTATTCGCACCGACAC	-0.158 ± 0.46	-1.42 ± 0.28
ACATTGGTTGATACAACCATAAAATGATAATTACACCCATAAATTGATCATTATCACACCCAATTTAACTATAACGCTCTGATCATAGTCAGACCAACATTGCTACGACCCGTATTCGCACCGACAC	-6.54 ± 2	-7.17 ± 0.13
CAAAATGTTGATACAACCATAAAATGATAATTACACCCATAAATTGATAATTATCACACCCATAAATTGATATTGCCTCTGATCATAGTCAGACCAACATTGCTACGACCCGTATTCGCACCGACAC	-0.0192 ± 0.23	-0.331 ± 0.081
ACATTTGTTGATACAACCATAAAGTGATATTTACACCCATAAATTGATATTGCTCACAACCATATATTGATATCTCCTCTGATCATAGTCAGACCAACATTGCTACGACCCGTATTCGCACCGACAC	0.671 ± 0.21	-0.534 ± 0.18
ACATTTGTGGATCCAACCATAAAATGATAATTACACCCATAAATTCATAATTATCACACCCAATTTAACTATAACGCTCTGATCATAGTCAGACCAACATTGCTACGACCCGTATTCGCACCGACAC	1.043 ± 0.0096	-2.04 ± 0.41
ACATTTGTTGATACAACCATAAAATGATAATTACACCCATAAATTGATAATTATCACACCCATAAATTGATATTGCCTCTGTTGACAGCTAGCTCAGTCCTAGGTATAATGCTAGCCGCACCGACAC	0.147 ± 0.2	-0.0954 ± 0.038
ACATTTGTTGATACAACCATAAACGTCTAATTACACCCATAAATTGATAATTATCACACCCATAAATTGATATTGCCTCTGATCATAGTCAGACCAACATTGCTACGACCCGTATTCGCACCGACAC	-2.25 ± 0.11	-2.72 ± 0.083
ACATTTGTTGATACAACCATAAAATGATAATTACCACCATAAATTGATAATTATCACACCCATAAATTGATATTGCCTCTGATCATAGTCAGACCAACATTGCTACGACCCGTATTCGCACCGACAC	-0.372 ± 0.27	0.0622 ± 0.17
ACATTTGTTGATACAACCATAAAATGATAATTACACCCATAAATTTCTAATTATCACACCCATAAATTGATATTGCCTCTGATCATAGTCAGACCAACATTGCTACGACCCGTATTCGCACCGACAC	-0.772 ± 0.23	-0.945 ± 0.17
ACATTTGTCGATACAACCATAAAATGATAATTCACCCATAAATTGATAATTATCACACCCCAATTTAACTATAACGCTCTGATCATAGTCAGACCAACATTGCTACGACCCGTATTCGCACCGACAC	1.05 ± 0.034	-2.26 ± 0.28
ACATTTGTTGATACAACCATAAAATGATAATTAATAATTACACCCATAAATTGATAATTATCAACAAACGCCCGGTCGCGGTACTCTGATCATAGTCAGACCAACATTGCTACGACCCGTATTCGCA	1.37 ± 0.24	-2.18 ± 0.28
ACATTTGTTGATACAACCATAAAATCATCATTACCCCCATCAATTGATAATTATCCCACCCAATTTAACTATAACGCTCTGATCATAGTCAGACCAACATTGCTACGACCCGTATTCGCACCGACAC	-1.26 ± 0.14	-5.47 ± 0.095
ACATTTGTTGATACAACCATAAAATGATAATTACAAAACGCCCGGTCGCCGGCGACACAAACGCCCGGTCGCGGTAAGAGGATCATAGTCAGACCAACATTGCTACGACCCGTATTCGCACCGACAC	1.07 ± 0.12	-2.05 ± 0.22

Sequence	relative integration efficiency (log2) [1]	relative integration efficiency (log2) [2]
ACATTTGTTGATACAACCAAAAAATGATAATTACACCCAAAAATTGATAATTATCACACCCAAAAATTGATATTGCCTCTGATCATAGTCAGACCAACATTGCTACGACCCGTATTCGCACCGACAC	0.0409 ± 0.087	-0.669 ± 0.11
ACATTTGTTGATACAACCATAAATTGATAATTACACCCATAAAATGATAATTATCACACCCATAAAATGATATTGCCTCTGATCATAGTCAGACCAACATTGCTACGACCCGTATTCGCACCGACAC	-0.368 ± 0.16	-0.12 ± 0.2
ACATTTGTTGATACACCCATAAATTGATAATTACAACCATAAAATGATAATTATCACACCCATAAATTGATATTGCCTCTGATCATAGTCAGACCAACATTGCTACGACCCGTATTCGCACCGACAC	-0.673 ± 0.45	-0.475 ± 0.089
ACATTTGTTGATACCACCATCAAATGATAATTCCACCCCTACATTGATAATTATCACACCCAATTTAACTATAACGCTCTGATCATAGTCAGACCAACATTGCTACGACCCGTATTCGCACCGACAC	-2.15 ± 0.19	-5.99 ± 0.51
ACATTTGTTGATACAACCATAAAATGATAATTACTCTGATCATAGTCAGACCAACATTGCTACGACCCGTATTCGCACCGACACAACGCACCCATAAATTGATAATTATCAGTGGGTATTTAACTAT	1.8 ± 0.1	-1.4 ± 0.054
ACATTTGTTGATACAACCATAAAATGATAATTACACCCATAAATTGATAATGATGACACCGAATTTAACTATAACGCTCTGATCATAGTCAGACCAACATTGCTACGACCCGTATTCGCACCGACAC	2.06 ± 0.097	-1.34 ± 0.27
ACATTTGTTGATACAACCATTAAATGGTAATTCCACCCATATATTGATAATTATCACACCCAATTTAACTATAACGCTCTGATCATAGTCAGACCAACATTGCTACGACCCGTATTCGCACCGACAC	1.37 ± 0.13	-1.52 ± 0.24
ACATTTGTTCATACAACCATAAAATGATAATTACCACCCATACATTGATAATTATCACACCCATTTAACTATAACGCTCTGATCATAGTCAGACCAACATTGCTACGACCCGTATTCGCACCGACAC	-2.29 ± 0.1	-3.31 ± 0.39
ACATTTGTTGATACAACCATAAAATGATCATTACCCCCATAAATTGATAATTATCACACCCAATTTAACTATAACGCTCTGATCATAGTCAGACCAACATTGCTACGACCCGTATTCGCACCGACAC	1.59 ± 0.045	-1.95 ± 0.25
ACATTTGTTGATACAACCATCAAATGATAATTACACCCATCAATTGATAATTATCACACCCATCAATTGATATTGCCTCTGATCATAGTCAGACCAACATTGCTACGACCCGTATTCGCACCGACAC	-1.14 ± 0.11	-1.73 ± 0.26
ACATTTGTTGATACAACCATAAAGTGATATTTACACCCATAAATTGATATTGCTCACAACCATAAGTTGATATTTTCTCTGATCATAGTCAGACCAACATTGCTACGACCCGTATTCGCACCGACAC	0.0642 ± 0.26	-0.138 ± 0.13
ACATTTGTTGATACAACCATAAAATGATAATTACAACCATAAAATGATAATTATCACAACCATAAAGTGATATTTACTCTGATCATAGTCAGACCAACATTGCTACGACCCGTATTCGCACCGACAC	-0.296 ± 0.44	-0.175 ± 0.14
ACATTTGTTGATACACCCATAAATTGATATTGCCACCCATAAATTGATATTGCTCACAACCATAAAGTGATATTTACTCTGATCATAGTCAGACCAACATTGCTACGACCCGTATTCGCACCGACAC	0.0649 ± 0.043	-0.811 ± 0.21
ACATTTGTTGATACAACCATCAAATGGTAATTCCACCCATAAATTGATAATTATCACACCCAATTTAACTATAACGCTCTGATCATAGTCAGACCAACATTGCTACGACCCGTATTCGCACCGACAC	0.505 ± 0.11	-2.06 ± 0.2
ACATTTGTTGATACAACCATAAAATGTAAATTACACCCATAAATTGATAATTATCACACCCATAAATTGATATTGCCTCTGATCATAGTCAGACCAACATTGCTACGACCCGTATTCGCACCGACAC	-0.454 ± 0.18	-0.732 ± 0.084
ACATTTGTTGATACAACCATAAGTTGATATTTTCACCCATAAATTGATAATTATCACAACCATAAGTTGATATTTTCTCTGATCATAGTCAGACCAACATTGCTACGACCCGTATTCGCACCGACAC	-0.0829 ± 0.01	-0.215 ± 0.056
ACATTTGTTGATACAACCATAAACGGATAATTACACCCATAAATTGATAATTATCACACCCATAAATTGATATTGCCTCTGATCATAGTCAGACCAACATTGCTACGACCCGTATTCGCACCGACAC	-0.722 ± 0.72	-0.642 ± 0.01
